This note sets out measurements from patent US6534267 (dated 2003).

This data set concerns the molecule itself. In words: gel filtration of purified native Smac (self-association).

B1: 25-kDa Smac (second mitochondria-derived activator of caspase), native mature protein from HeLa cells (other)
chain: AVPIAQKSEPHSLSSEALMRRAVSLVTDSTSTFLSQTTYALIEAITEYTKAVYTLTSLYRQYTSLLGKMNSEEEDEVWQVIIGARAEMTSKHQEYLKLETTWMTAVGLSEMAAEAAYQTGADQASITARNHIQLVKLQVEEVHQLSRKAETKLAEAQIEELRQKTQEEGEERAESEQEAYLRED
notes: The HeLa protein is also about 25 kDa; Gel filtration points to a homotetramer; also called 25-kDa protein; native Smac
On to B1, for which the binding result was “binds”.
